Results as given in paper PMC6258877.

Target: short cTag (s-cTag) on a CD8α stalk (human)
Assay: flow cytometry on cells; 293T cells transiently transfected with the mimic constructs (co-expressed EGFP), stained with APC-conjugated streptavidin 48 hr later; MedFI of EGFP-positive cells; staining of cTag8 293T cells reversed by 1 mM biotin, 1 hr, room temperature

Chain of streptavidin allophycocyanin (APC) (P22629 25-183): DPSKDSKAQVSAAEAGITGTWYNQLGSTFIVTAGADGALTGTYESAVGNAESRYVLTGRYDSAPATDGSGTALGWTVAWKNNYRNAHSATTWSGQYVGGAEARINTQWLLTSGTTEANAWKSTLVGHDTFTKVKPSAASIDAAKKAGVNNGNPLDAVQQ

## streptavidin allophycocyanin (APC) (from UniProt P22629 25-183) (natural protein)
  median fluorescence intensity (MedFI): 10000
